Assay [1] addresses T1, human FcgRIIa type R extracellular domain (human, UniProt P12318 34-217).
T1 construct: extracellular domain; also called hFcgRIIaR
T1 sequence (looked up): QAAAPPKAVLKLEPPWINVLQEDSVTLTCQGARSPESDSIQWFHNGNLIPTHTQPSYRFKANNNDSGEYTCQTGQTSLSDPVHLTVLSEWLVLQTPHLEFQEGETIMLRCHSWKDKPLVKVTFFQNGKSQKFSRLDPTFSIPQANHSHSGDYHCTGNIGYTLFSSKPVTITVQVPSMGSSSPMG
Put plainly: SPR 25C. On the procedure:
(§1) Biacore T200 (GE Healthcare) was used to evaluate the binding activity to the respective human Fcγ receptor (hereafter referred to as FcγR). Measurement was performed at 25° C. using 50 mM phosphate, 150 mM NaCl, 0.05 w/v %-P20, pH 7.4 as buffer. About 1000 RU of antibody was captured using a sensor chip immobilized with CaptureSelect™ Human Fab-lambda Kinetics Biotin Conjugate (Thermo Fisher Scientific) as a molecule for ligand capturing. Human FcγR was diluted to 8 nM for FcγRIa and 1000 nM for other FcγR in the measurement buffer, and it was interacted to the captured antibody. The binding activity of each antibody to FcγR was assessed by calculating the binding amount of FcγR (RU) per unit amount of antibody using Biacore T200 Evaluation Software 2.0.

For assay [2], the target named is T2, human FcgRIIIa F158 extracellular domain (human, UniProt P08637 17-208).
T2 construct: extracellular domain; also called hFcgRIIIaF
T2 sequence (P08637 17-208): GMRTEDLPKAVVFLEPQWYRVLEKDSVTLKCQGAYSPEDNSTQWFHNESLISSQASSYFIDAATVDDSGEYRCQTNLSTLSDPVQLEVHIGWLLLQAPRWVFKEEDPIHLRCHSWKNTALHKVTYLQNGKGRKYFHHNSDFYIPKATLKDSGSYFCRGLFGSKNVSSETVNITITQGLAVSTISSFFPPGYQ
Put plainly: SPR 25C. Here is the method:
as §1

Assay [3] addresses T3, human FcgRIa extracellular domain (human, UniProt P12314 16-292).
T3 construct: extracellular domain; also called hFcgRIa
Put plainly: SPR 25C. On the procedure: as §1

Assay [4] concerns the target T4, human FcgRIIb extracellular domain (human, UniProt P31994 43-217).
T4 construct: extracellular domain; also called hFcgRIIb
T4 sequence (looked up): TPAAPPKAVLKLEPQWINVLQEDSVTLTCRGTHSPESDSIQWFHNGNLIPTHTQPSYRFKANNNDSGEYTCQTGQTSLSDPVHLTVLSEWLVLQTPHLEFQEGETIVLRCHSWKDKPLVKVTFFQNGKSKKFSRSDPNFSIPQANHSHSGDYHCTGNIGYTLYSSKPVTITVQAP
Put plainly: SPR 25C. Here is the method: as §1

Assay [5] concerns the target T5, human FcgRIIIa V158 extracellular domain (human, UniProt P08637 17-208).
T5 construct: extracellular domain; also called hFcgRIIIaV
Put plainly: SPR 25C. On the procedure: as §1

In assay [6] the target is T6, human FcgRIIa type H extracellular domain (human, UniProt P12318 34-217).
T6 construct: extracellular domain; also called hFcgRIIaH
T6 sequence (looked up): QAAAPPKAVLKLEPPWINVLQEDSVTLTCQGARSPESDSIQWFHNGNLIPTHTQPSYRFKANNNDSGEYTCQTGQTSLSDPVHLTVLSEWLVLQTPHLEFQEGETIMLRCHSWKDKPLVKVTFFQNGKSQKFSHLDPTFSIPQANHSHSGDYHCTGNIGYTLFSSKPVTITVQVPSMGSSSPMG
Put plainly: SPR 25C. Here is the method: as §1

In assay [7] the target is human FcRn (human, UniProt P55899 24-290; P61769 21-119). Put plainly: SPR 25C pH 6.0, steady state. On the procedure: Biacore T200 (GE Healthcare) was used to assess the binding activity to human FcRn. Measurement was performed at 25° C. using 50 mM phosphate, 150 mM NaCl, 0.05 w/v %-P20, pH 6.0 as buffer. Human FcRn proteins used for this determination were prepared by the procedure described in WO2010107110. About 400 RU of antibody was captured using a sensor chip immobilized with CaptureSelect™ Human Fab-lambda Kinetics Biotin Conjugate (Thermo Fisher Scientific) as a molecule for ligand capturing, followed by the binding of human FcRn diluted in measuring buffer. The activity of the respective antibodies to bind FcRn was assessed by calculating KD(mol/L) by the steady-state model using Biacore T200 Evaluation Software 2.0.
Chain of human FcRn (P55899 24-290 limits assumed, chain 1 of 2): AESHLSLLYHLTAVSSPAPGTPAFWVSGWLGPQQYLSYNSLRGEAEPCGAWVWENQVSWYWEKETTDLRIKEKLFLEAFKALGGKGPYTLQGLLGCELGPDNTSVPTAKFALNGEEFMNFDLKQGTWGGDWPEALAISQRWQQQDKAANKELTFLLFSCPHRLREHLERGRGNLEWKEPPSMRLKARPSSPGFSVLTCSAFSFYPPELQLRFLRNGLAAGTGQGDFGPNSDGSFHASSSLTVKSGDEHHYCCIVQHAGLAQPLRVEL
Chain of human FcRn (P61769 21-119 limits assumed, chain 2 of 2): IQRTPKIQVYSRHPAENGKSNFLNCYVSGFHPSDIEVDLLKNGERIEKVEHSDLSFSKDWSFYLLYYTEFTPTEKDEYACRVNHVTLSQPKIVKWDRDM

T3 sequence (P12314 16-292): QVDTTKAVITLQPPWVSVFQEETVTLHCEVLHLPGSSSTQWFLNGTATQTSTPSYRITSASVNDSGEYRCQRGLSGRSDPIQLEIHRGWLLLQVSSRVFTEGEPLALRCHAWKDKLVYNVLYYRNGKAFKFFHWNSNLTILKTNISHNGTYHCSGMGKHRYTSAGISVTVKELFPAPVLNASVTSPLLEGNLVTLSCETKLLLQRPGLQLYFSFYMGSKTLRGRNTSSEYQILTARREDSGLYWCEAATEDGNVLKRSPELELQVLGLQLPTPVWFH
T5 sequence (P08637 17-208 F176V): as the sequence (P08637 17-208) above, with F160V counted along it

B1: A375-SCF027/B167-Lamlib (antibody, human IgG1, lambda)
heavy: EVQLVESGGGLVKPGGSLRLSCAASGFTFSTFTMNWVRQAPGKGLEWVSSISSKSTYIEYADSFKVRFTISRDNAKNSLYLQMNSLRAEDTAVYYCARYGAKNFLNWVFDYWGQGTLVTVSSASTKGPSVFPLAPSSKSTSGGTAALGCLVKDYFPEPVTVSWNSGALTSGVHTFPAVLQSSGLYSLSSVVTVPSSSLGTQTYICNVNHKPSNTKVDKKVEPKSCDKTHTCPPCPAPEYLGGDSVFLFPPKPKDVLMISRTPEVTCVVIDVSHEDPEVKFNWYVDGVEVHNAKTKPREEQYNSTYRVVSVLPVLHQDWLNGKEYKCKVSNKALPKPIEKTISKAKGQRREPQVYTLPPSREEMTKNQVSLTCLVKGFYPSDIAVEWESNGQPENNYKTTPPVLDSDGSFFLYSKLTVKKSRWQQGNVFSCSVMHEALHNHYTQKSLSLSP
light: QSALTQPPSASGSPGQTVTISCTGTRYDVGYYEYVSWYQQHPGKAPKLMIYETSKRLSGVPDRFSGSKSGNTASLTVSGLQAEDEADYYCSSYRYEHQVSFGGGTKLTVLGQPKAAPSVTLFPPSSEELQANKATLVCLISDFYPGAVTVAWKADSSPVKAGVETTTPSKQSNNKYAASSYLSLTPEQWKSHRSYSCQVTHEGSTVEKTVAPTECS
As usually defined, the Kd is the concentration at which binding is half-saturated. For B1, the “binding per 1RU antibody” value in assay [1] is 0.0058 RU; in assay [2] it was -0.0005 RU; in assay [3], 0.0044 RU; in assay [4], 0.0766 RU; in assay [5] it was -0.0006 RU; in assay [6], 0.0031 RU. Besides, the “relative binding (A375-G1T3/B167-Lamlib=1)” value (shortened to “relative binding”) in assay [1] is 0.12; in assay [2], -0.02; in assay [3], 0.05; in assay [4], 6.99; in assay [5] it was -0.01; in assay [6], 0.06. Besides, the Kd in assay [7] worked out at 1330 nM.

B2: A375-SCF030/B167-Lamlib (antibody, human IgG1, lambda)
heavy: EVQLVESGGGLVKPGGSLRLSCAASGFTFSTFTMNWVRQAPGKGLEWVSSISSKSTYIEYADSFKVRFTISRDNAKNSLYLQMNSLRAEDTAVYYCARYGAKNFLNWVFDYWGQGTLVTVSSASTKGPSVFPLAPSSKSTSGGTAALGCLVKDYFPEPVTVSWNSGALTSGVHTFPAVLQSSGLYSLSSVVTVPSSSLGTQTYICNVNHKPSNTKVDKKVEPKSCDKTHTCPPCPAPELWNGPSVFLFPPKPKDTLMISRTPEVTCVVVDVSDEDPEVKFNWYVDGVEVHNAKTKPREELYNSTYRVVSVLTVLHRDWLNGKEYKCKVSNTALPKPIEKTISKAKGQRREPQVYTLPPSREEMTKNQVSLTCLVKGFYPSDIAVEWESNGQPENNYKTTPPVLDSDGSFFLYSKLTVDKSRWQQGNVFSCSVMHEALHNHYTQKSLSLSP
light: QSALTQPPSASGSPGQTVTISCTGTRYDVGYYEYVSWYQQHPGKAPKLMIYETSKRLSGVPDRFSGSKSGNTASLTVSGLQAEDEADYYCSSYRYEHQVSFGGGTKLTVLGQPKAAPSVTLFPPSSEELQANKATLVCLISDFYPGAVTVAWKADSSPVKAGVETTTPSKQSNNKYAASSYLSLTPEQWKSHRSYSCQVTHEGSTVEKTVAPTECS
In the case of B2, the “binding per 1RU antibody” value in assay [1] was found to be 0.0532 RU; in assay [2], 0.0017 RU; in assay [3], 0.002 RU; in assay [4] it was 0.0532 RU; in assay [5] it was 0.002 RU; in assay [6], 0.0533 RU. Further, the “relative binding” value in assay [1] came out at 1.15; in assay [2], 0.08; in assay [3], 0.02; in assay [4], 4.85; in assay [5], 0.03; in assay [6], 0.94. This molecule displayed a Kd in assay [7] of 863 nM.

B3: A375-SCF028/B167-Lamlib (antibody, human IgG1, lambda)
heavy: EVQLVESGGGLVKPGGSLRLSCAASGFTFSTFTMNWVRQAPGKGLEWVSSISSKSTYIEYADSFKVRFTISRDNAKNSLYLQMNSLRAEDTAVYYCARYGAKNFLNWVFDYWGQGTLVTVSSASTKGPSVFPLAPSSKSTSGGTAALGCLVKDYFPEPVTVSWNSGALTSGVHTFPAVLQSSGLYSLSSVVTVPSSSLGTQTYICNVNHKPSNTKVDKKVEPKSCDKTHTCPPCPAPEYLGDDSVFLFPPKPKDVLMISRTPEVTCVVVDVSHEDPEVKFNWYVDGVEVHNAKTKPREEQYNSTYRVVSVLPVLHQDWLNGKEYKCKVSNKALPKPIEKTISKAKGQRREPQVYTLPPSREEMTKNQVSLTCLVKGFYPSDIAVEWESNGQPENNYKTTPPVLDSDGSFFLYSKLTVKKSRWQQGNVFSCSVMHEALHNHYTQKSLSLSP
light: QSALTQPPSASGSPGQTVTISCTGTRYDVGYYEYVSWYQQHPGKAPKLMIYETSKRLSGVPDRFSGSKSGNTASLTVSGLQAEDEADYYCSSYRYEHQVSFGGGTKLTVLGQPKAAPSVTLFPPSSEELQANKATLVCLISDFYPGAVTVAWKADSSPVKAGVETTTPSKQSNNKYAASSYLSLTPEQWKSHRSYSCQVTHEGSTVEKTVAPTECS
As for B3, the “binding per 1RU antibody” value in assay [1] was 0.0299 RU; in assay [2], -0.0009 RU; in assay [3], 0.0027 RU; in assay [4], 0.0995 RU; in assay [5], -0.001 RU; in assay [6] it was 0.0101 RU. The “relative binding” value was 0.64 in assay [1]; -0.04 in assay [2]; 0.03 in assay [3]; 9.08 in assay [4]; -0.01 in assay [5]; 0.18 in assay [6]. In assay [7], the Kd came out at 1270 nM.

B4: A375-SCF032/B167-Lamlib (antibody, human IgG1, lambda)
heavy: EVQLVESGGGLVKPGGSLRLSCAASGFTFSTFTMNWVRQAPGKGLEWVSSISSKSTYIEYADSFKVRFTISRDNAKNSLYLQMNSLRAEDTAVYYCARYGAKNFLNWVFDYWGQGTLVTVSSASTKGPSVFPLAPSSKSTSGGTAALGCLVKDYFPEPVTVSWNSGALTSGVHTFPAVLQSSGLYSLSSVVTVPSSSLGTQTYICNVNHKPSNTKVDKKVEPKSCDKTHTCPPCPAPEYLGGDSVFLFPPKPKDVLMISRTPEVTCVVIDVSHEDPEVKFNWYVDGVEVHNAKTKPREEQYNSTYRVVSVLPVLHRDWLNGKEYKCKVSNKALPKPIEKTISKAKGQRREPQVYTLPPSREEMTKNQVSLTCLVKGFYPSDIAVEWESNGQPENNYKTTPPVLDSDGSFFLYSKLTVDKSRWQQGNVFSCSVMHEALHNHYTQKSLSLSP
light: QSALTQPPSASGSPGQTVTISCTGTRYDVGYYEYVSWYQQHPGKAPKLMIYETSKRLSGVPDRFSGSKSGNTASLTVSGLQAEDEADYYCSSYRYEHQVSFGGGTKLTVLGQPKAAPSVTLFPPSSEELQANKATLVCLISDFYPGAVTVAWKADSSPVKAGVETTTPSKQSNNKYAASSYLSLTPEQWKSHRSYSCQVTHEGSTVEKTVAPTECS
As to B4, the “binding per 1RU antibody” value in assay [1] is -0.0004 RU; in assay [2], -0.0007 RU; in assay [3], 0.0049 RU; in assay [4], 0.0782 RU; in assay [5], -0.0007 RU; in assay [6], 0.003 RU. In addition, the “relative binding” value was -0.01 in assay [1]; -0.03 in assay [2]; 0.06 in assay [3]; 7.14 in assay [4]; -0.01 in assay [5]; 0.05 in assay [6]. The Kd in assay [7] worked out at 966 nM.

Values taken from patent US20230272099A1 (Chugai, published 2023).
